This passage reports CHR ratio (CHR product to total CHS product) in E. coli BL21(DE3)-pYH153 and titer of apigenin in strain DHF-2 (pYH153) compared to DHF-1 (pYH141) results from article PMC8488244.

Assay [1] concerns the target GmCHS7:PDZlig-CeGFP (Glycine max) (UniProt P30081).
The target is the same in assay [2]. This is another data set of the same source.

Chain of UniProt P30081 (P30081 whole entry): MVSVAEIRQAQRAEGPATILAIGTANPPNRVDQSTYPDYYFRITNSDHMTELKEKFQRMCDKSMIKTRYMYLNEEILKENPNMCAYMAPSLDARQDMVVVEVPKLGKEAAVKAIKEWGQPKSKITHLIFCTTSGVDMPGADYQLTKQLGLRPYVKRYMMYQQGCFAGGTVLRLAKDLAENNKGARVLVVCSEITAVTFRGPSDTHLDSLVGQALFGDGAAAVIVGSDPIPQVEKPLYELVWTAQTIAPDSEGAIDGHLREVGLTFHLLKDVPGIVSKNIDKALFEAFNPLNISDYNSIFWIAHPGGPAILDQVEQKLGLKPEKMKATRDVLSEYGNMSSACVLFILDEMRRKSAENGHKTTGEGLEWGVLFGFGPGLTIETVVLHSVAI

For “GuCHR:PDZ-NeGFP (from UniProt Q61234 81-164)”, the CHR ratio (CHR product to total CHS product) in E. coli BL21(DE3)-pYH153 in assay [1] was determined as 54.7%. The titer of apigenin in strain DHF-2 (pYH153) compared to DHF-1 (pYH141) in assay [2] was 1.1 fold.
